Assay results reported in PMC7950132 (Molecular & Cellular Proteomics : MCP, 2021).

Molecular target: T1, CUL5(NEDD8) (human, UniProt Q93034 1-780; Q15843 1-76, NEDD8 attached at K724)
T1 construct: cullin 5, human; NEDD8, human, conjugated to CUL5; Always present together with RBX2 and ELOB/C in the experiments; written alone for the pairs inside the complexes; The His tag on CUL5 served the Ni-NTA step before TEV cleavage; also called neddylated CUL5; source: E. coli BL21, coexpressed with RBX2 and ELOB/C, neddylated in mixed lysates, purified (Ni-NTA, SEC); not shown: His6, N-terminal, …
Assay: SEC; ARIH2 mixed with an equimolar amount of ELOB/C-CUL5(NEDD8)-RBX2 or ELOB/C-CUL5-RBX2, separated by size exclusion; fractions on SDS-PAGE
Details: both partners purified

T1 sequence (Q93034 whole entry, chain 1 of 2): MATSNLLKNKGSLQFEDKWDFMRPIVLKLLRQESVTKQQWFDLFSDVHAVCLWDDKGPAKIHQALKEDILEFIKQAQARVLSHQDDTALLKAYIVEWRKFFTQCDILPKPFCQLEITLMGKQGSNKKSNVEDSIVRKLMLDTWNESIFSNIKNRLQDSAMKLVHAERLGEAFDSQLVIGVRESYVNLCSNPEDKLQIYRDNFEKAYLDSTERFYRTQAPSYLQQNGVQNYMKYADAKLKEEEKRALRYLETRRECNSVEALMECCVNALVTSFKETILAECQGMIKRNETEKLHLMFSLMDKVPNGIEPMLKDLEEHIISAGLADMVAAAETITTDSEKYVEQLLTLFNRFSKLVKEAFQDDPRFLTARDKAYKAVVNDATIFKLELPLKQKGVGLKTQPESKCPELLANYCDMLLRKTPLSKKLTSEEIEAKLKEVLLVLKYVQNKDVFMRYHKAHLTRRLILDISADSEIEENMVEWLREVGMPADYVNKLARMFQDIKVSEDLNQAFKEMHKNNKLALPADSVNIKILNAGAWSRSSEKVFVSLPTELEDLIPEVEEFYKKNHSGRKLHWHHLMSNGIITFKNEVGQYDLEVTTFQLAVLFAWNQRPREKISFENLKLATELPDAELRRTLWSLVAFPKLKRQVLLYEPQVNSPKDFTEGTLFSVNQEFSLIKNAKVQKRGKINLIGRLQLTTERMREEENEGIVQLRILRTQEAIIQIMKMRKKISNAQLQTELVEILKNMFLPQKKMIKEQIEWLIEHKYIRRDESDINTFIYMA
T1 sequence (Q15843 1-76, chain 2 of 2): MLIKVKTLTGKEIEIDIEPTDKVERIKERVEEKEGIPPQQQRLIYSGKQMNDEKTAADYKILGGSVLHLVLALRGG

binding result: binds
B1: Ariadne RBR E3 ubiquitin protein ligase 2 (ARIH2) (enzyme, human, UniProt O95376 1-493, looked up)
chain: MSVDMNSQGSDSNEEDYDPNCEEEEEEEEDDPGDIEDYYVGVASDVEQQGADAFDPEEYQFTCLTYKESEGALNEHMTSLASVLKVSHSVAKLILVNFHWQVSEILDRYKSNSAQLLVEARVQPNPSKHVPTSHPPHHCAVCMQFVRKENLLSLACQHQFCRSCWEQHCSVLVKDGVGVGVSCMAQDCPLRTPEDFVFPLLPNEELREKYRRYLFRDYVESHYQLQLCPGADCPMVIRVQEPRARRVQCNRCNEVFCFKCRQMYHAPTDCATIRKWLTKCADDSETANYISAHTKDCPKCNICIEKNGGCNHMQCSKCKHDFCWMCLGDWKTHGSEYYECSRYKENPDIVNQSQQAQAREALKKYLFYFERWENHNKSLQLEAQTYQRIHEKIQERVMNNLGTWIDWQYLQNAAKLLAKCRYTLQYTYPYAYYMESGPRKKLFEYQQAQLEAEIENLSWKVERADSYDRGDLENQMHIAEQRRRTLLKDFHDT
notes: ARIH2, human, codon-optimised synthetic gene; also called ARIH2 RBRL; source: E. coli BL21, purified (Ni-NTA, SEC); not shown: His6, N-terminal, cleaved; MBP, N-terminal, cleaved
